Biological target: taxol-stabilized microtubules polymerized from porcine brain tubulin (UniProt P02550)
Experiment: MT-binding assay (cosedimentation)
Settings: 5 μM CG2 mutant, […] taxol–MTs; parent: est. 1.0; read off a plot

Chain of taxol-stabilized microtubules polymerized from porcine brain tubulin (P02550 whole entry, chain 1 of 2): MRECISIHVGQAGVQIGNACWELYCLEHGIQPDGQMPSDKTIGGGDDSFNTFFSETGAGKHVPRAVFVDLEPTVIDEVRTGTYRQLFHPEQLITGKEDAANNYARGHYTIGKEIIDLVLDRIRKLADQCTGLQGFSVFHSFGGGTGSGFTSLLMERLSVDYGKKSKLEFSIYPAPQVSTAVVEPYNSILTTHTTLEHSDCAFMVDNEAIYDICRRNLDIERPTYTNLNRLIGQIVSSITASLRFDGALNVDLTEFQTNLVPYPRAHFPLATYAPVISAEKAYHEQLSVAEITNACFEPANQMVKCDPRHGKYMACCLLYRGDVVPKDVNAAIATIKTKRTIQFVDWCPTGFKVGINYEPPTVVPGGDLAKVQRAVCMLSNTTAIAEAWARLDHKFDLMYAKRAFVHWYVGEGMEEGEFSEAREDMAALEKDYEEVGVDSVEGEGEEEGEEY
Chain of taxol-stabilized microtubules polymerized from porcine brain tubulin (chain, as listed by the source, chain 2 of 2): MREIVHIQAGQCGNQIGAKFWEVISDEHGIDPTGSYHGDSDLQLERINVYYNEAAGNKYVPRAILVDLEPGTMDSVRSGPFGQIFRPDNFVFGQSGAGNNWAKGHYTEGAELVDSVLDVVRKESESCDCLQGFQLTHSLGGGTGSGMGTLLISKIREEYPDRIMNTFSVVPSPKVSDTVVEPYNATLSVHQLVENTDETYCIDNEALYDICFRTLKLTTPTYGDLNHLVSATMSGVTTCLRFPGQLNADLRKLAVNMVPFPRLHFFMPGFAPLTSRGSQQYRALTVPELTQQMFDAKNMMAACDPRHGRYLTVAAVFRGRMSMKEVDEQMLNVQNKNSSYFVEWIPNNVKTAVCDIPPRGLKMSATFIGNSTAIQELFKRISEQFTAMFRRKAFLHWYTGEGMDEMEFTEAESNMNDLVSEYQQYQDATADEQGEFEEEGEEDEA
Chain of CLIP-170 CG2 fragment (206-288), P30622 H276A (P30622 206-288 H276A): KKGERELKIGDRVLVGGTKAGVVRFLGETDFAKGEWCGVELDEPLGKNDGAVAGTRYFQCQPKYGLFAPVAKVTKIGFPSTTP

- ratio to parent: 0.91
Substance: CLIP-170 CG2 fragment (206-288), P30622 H276A

Reference: article PMC9062740
